# According to the supplement of paper PMC9112550, “Optimization of the antimicrobial peptide Bac7 by deep mutational scanning” (BMC Biology, 2022):
# Tested on: Escherichia coli TOP10
# Test: shrunken log2 fold change of peptide-encoding DNA abundance (4.5 h post-induction vs induction); higher = less antimicrobial activity (less host growth inhibition)
# Conditions: time post-induction: 4.5 h; library: site-saturation at positions 5, 18, 19, 20
# 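Note: peptides expressed intracellularly from a pBAD plasmid library in pooled LB shake-flask culture, induced with 0.3% L-arabinose, DNA abundance read by NGS, three biological replicates, DESeq2 with apeglm shrinkage.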
row,Sequence,shrunken log2 fold change
1,RRIRLRPPRLPRPRPRPRHSPRP,0.0207
2,RRIRLRPPRLPRPRPRPRKKPRP,0.355
3,RRIRLRPPRLPRPRPRPRKLPRP,-0.0264
4,RRIRLRPPRLPRPRPRPRMCPRP,-0.0246
5,RRIRLRPPRLPRPRPRPRMHPRP,0.136
6,RRIRLRPPRLPRPRPRPRMPPRP,0.352
7,RRIRLRPPRLPRPRPRPRMQPRP,-0.0604
8,RRIRLRPPRLPRPRPRPRMSPRP,-1
9,RRIRLRPPRLPRPRPRPRQTPRP,1.27
10,RRIRLRPPRLPRPRPRPRSMPRP,-0.326
11,RRIRLRPPRLPRPRPRPRTMPRP,-0.0102
12,RRIRLRPPRLPRPRPRPRTWPRP,0.111
13,RRIRLRPPRLPRPRPRPRWPPRP,0.716
14,RRIRLRPPRLPRPRPRPSANPRP,-0.0303
15,RRIRLRPPRLPRPRPRPSEAPRP,0.12
16,RRIRLRPPRLPRPRPRPSESPRP,-0.244
17,RRIRLRPPRLPRPRPRPSGEPRP,0.0911
18,RRIRLRPPRLPRPRPRPSGIPRP,-0.267
19,RRIRLRPPRLPRPRPRPSGKPRP,0.19
20,RRIRLRPPRLPRPRPRPSGLPRP,-0.429
21,RRIRLRPPRLPRPRPRPSHDPRP,-0.385
22,RRIRLRPPRLPRPRPRPSIEPRP,-0.602
23,RRIRLRPPRLPRPRPRPSKQPRP,-0.572
24,RRIRLRPPRLPRPRPRPSKWPRP,-0.348
25,RRIRLRPPRLPRPRPRPSMWPRP,0.0718

row,Sequence,shrunken log2 fold change
1,RRIRLRPPRLPRPRPRPSNKPRP,-0.646
2,RRIRLRPPRLPRPRPRPSNQPRP,-1.04
3,RRIRLRPPRLPRPRPRPSPPPRP,0.198
4,RRIRLRPPRLPRPRPRPSQNPRP,-0.278
5,RRIRLRPPRLPRPRPRPSQQPRP,-0.0225
6,RRIRLRPPRLPRPRPRPSQVPRP,-0.573
7,RRIRLRPPRLPRPRPRPSSGPRP,0.131
8,RRIRLRPPRLPRPRPRPSSSPRP,0.172
9,RRIRLRPPRLPRPRPRPSTIPRP,-0.246
10,RRIRLRPPRLPRPRPRPSTQPRP,-0.337
11,RRIRLRPPRLPRPRPRPSVKPRP,-0.0487
12,RRIRLRPPRLPRPRPRPSYCPRP,-0.413
13,RRIRLRPPRLPRPRPRPSYRPRP,-0.242
14,RRIRLRPPRLPRPRPRPSYYPRP,-0.963
15,RRIRLRPPRLPRPRPRPTAIPRP,-0.17
16,RRIRLRPPRLPRPRPRPTASPRP,0.0857
17,RRIRLRPPRLPRPRPRPTCKPRP,-0.0465
18,RRIRLRPPRLPRPRPRPTDAPRP,0.193
19,RRIRLRPPRLPRPRPRPTDEPRP,-0.111
20,RRIRLRPPRLPRPRPRPTDGPRP,-0.0875
21,RRIRLRPPRLPRPRPRPTEYPRP,-0.0401
22,RRIRLRPPRLPRPRPRPTFQPRP,-0.098
23,RRIRLRPPRLPRPRPRPTHKPRP,0.38
24,RRIRLRPPRLPRPRPRPTIPPRP,0.0895
25,RRIRLRPPRLPRPRPRPTNHPRP,-0.174

row,Sequence,shrunken log2 fold change
1,RRIRLRPPRLPRPRPRPTQIPRP,0.14
2,RRIRLRPPRLPRPRPRPTSEPRP,-0.0829
3,RRIRLRPPRLPRPRPRPTSFPRP,-0.0182
4,RRIRLRPPRLPRPRPRPTSSPRP,-0.178
5,RRIRLRPPRLPRPRPRPTTNPRP,-0.0886
6,RRIRLRPPRLPRPRPRPTTWPRP,0.0965
7,RRIRLRPPRLPRPRPRPTTYPRP,-0.182
8,RRIRLRPPRLPRPRPRPTWDPRP,0.183
9,RRIRLRPPRLPRPRPRPTWHPRP,0.174
10,RRIRLRPPRLPRPRPRPTWIPRP,0.0209
11,RRIRLRPPRLPRPRPRPTYKPRP,-0.244
12,RRIRLRPPRLPRPRPRPTYPPRP,0.0515
13,RRIRLRPPRLPRPRPRPTYVPRP,-0.591
14,RRIRLRPPRLPRPRPRPVALPRP,0.0145
15,RRIRLRPPRLPRPRPRPVAMPRP,0.0144
16,RRIRLRPPRLPRPRPRPVCQPRP,0.155
17,RRIRLRPPRLPRPRPRPVDRPRP,0.584
18,RRIRLRPPRLPRPRPRPVDVPRP,0.0939
19,RRIRLRPPRLPRPRPRPVEHPRP,-0.174
20,RRIRLRPPRLPRPRPRPVERPRP,-0.0146
21,RRIRLRPPRLPRPRPRPVGCPRP,0.226
22,RRIRLRPPRLPRPRPRPVGNPRP,0.0885
23,RRIRLRPPRLPRPRPRPVITPRP,-0.372
24,RRIRLRPPRLPRPRPRPVLVPRP,-0.161
25,RRIRLRPPRLPRPRPRPVPNPRP,0.0119

row,Sequence,shrunken log2 fold change
1,RRIRLRPPRLPRPRPRPVPWPRP,0.0255
2,RRIRLRPPRLPRPRPRPVQGPRP,-0.01
3,RRIRLRPPRLPRPRPRPVREPRP,0.185
4,RRIRLRPPRLPRPRPRPVSEPRP,0.172
5,RRIRLRPPRLPRPRPRPVSPPRP,-0.00493
6,RRIRLRPPRLPRPRPRPVTAPRP,0.213
7,RRIRLRPPRLPRPRPRPVTRPRP,0.0329
8,RRIRLRPPRLPRPRPRPVTWPRP,-0.0276
9,RRIRLRPPRLPRPRPRPVVAPRP,0.0705
10,RRIRLRPPRLPRPRPRPVVFPRP,-0.136
11,RRIRLRPPRLPRPRPRPVVKPRP,-0.166
12,RRIRLRPPRLPRPRPRPVVNPRP,-0.0535
13,RRIRLRPPRLPRPRPRPVVTPRP,-0.0571
14,RRIRLRPPRLPRPRPRPVYIPRP,-0.258
15,RRIRLRPPRLPRPRPRPWCTPRP,0.0254
16,RRIRLRPPRLPRPRPRPWFLPRP,-0.449
17,RRIRLRPPRLPRPRPRPWFRPRP,-0.252
18,RRIRLRPPRLPRPRPRPWGGPRP,1.94
19,RRIRLRPPRLPRPRPRPWHTPRP,-0.314
20,RRIRLRPPRLPRPRPRPWIQPRP,-0.355
21,RRIRLRPPRLPRPRPRPWIYPRP,-0.385
22,RRIRLRPPRLPRPRPRPWLNPRP,-0.183
23,RRIRLRPPRLPRPRPRPWMAPRP,-0.346
24,RRIRLRPPRLPRPRPRPWNFPRP,-0.0899
25,RRIRLRPPRLPRPRPRPWNHPRP,-0.347

row,Sequence,shrunken log2 fold change
1,RRIRLRPPRLPRPRPRPWPAPRP,0.0194
2,RRIRLRPPRLPRPRPRPWQVPRP,0.0253
3,RRIRLRPPRLPRPRPRPWRRPRP,0.0451
4,RRIRLRPPRLPRPRPRPWSIPRP,-0.0808
5,RRIRLRPPRLPRPRPRPWTFPRP,-0.0155
6,RRIRLRPPRLPRPRPRPWTGPRP,-0.0428
7,RRIRLRPPRLPRPRPRPWVKPRP,-0.0122
8,RRIRLRPPRLPRPRPRPWWAPRP,0.0811
9,RRIRLRPPRLPRPRPRPWWFPRP,-0.21
10,RRIRLRPPRLPRPRPRPWWYPRP,-0.227
11,RRIRLRPPRLPRPRPRPYAMPRP,-0.226
12,RRIRLRPPRLPRPRPRPYCAPRP,-0.151
13,RRIRLRPPRLPRPRPRPYCEPRP,-0.135
14,RRIRLRPPRLPRPRPRPYCKPRP,-0.736
15,RRIRLRPPRLPRPRPRPYCVPRP,-0.622
16,RRIRLRPPRLPRPRPRPYDFPRP,-0.0867
17,RRIRLRPPRLPRPRPRPYDVPRP,-0.366
18,RRIRLRPPRLPRPRPRPYECPRP,-0.352
19,RRIRLRPPRLPRPRPRPYEIPRP,-0.012
20,RRIRLRPPRLPRPRPRPYFNPRP,-1.13
21,RRIRLRPPRLPRPRPRPYLEPRP,-0.169
22,RRIRLRPPRLPRPRPRPYMQPRP,-0.297
23,RRIRLRPPRLPRPRPRPYNGPRP,-0.103
24,RRIRLRPPRLPRPRPRPYNMPRP,-0.859
25,RRIRLRPPRLPRPRPRPYPGPRP,-0.251

row,Sequence,shrunken log2 fold change
1,RRIRLRPPRLPRPRPRPYQDPRP,-0.106
2,RRIRLRPPRLPRPRPRPYQEPRP,-0.46
3,RRIRLRPPRLPRPRPRPYQRPRP,-0.393
4,RRIRLRPPRLPRPRPRPYRFPRP,0.0498
5,RRIRLRPPRLPRPRPRPYRPPRP,-0.221
6,RRIRLRPPRLPRPRPRPYRVPRP,-0.00141
7,RRIRLRPPRLPRPRPRPYSWPRP,-0.176
8,RRIRLRPPRLPRPRPRPYTWPRP,-0.716
9,RRIRLRPPRLPRPRPRPYVIPRP,-0.662
10,RRIRLRPPRLPRPRPRPYYFPRP,-0.767
11,RRIRMRPPRLPRPRPRPAAFPRP,0.503
12,RRIRMRPPRLPRPRPRPACSPRP,0.551
13,RRIRMRPPRLPRPRPRPADCPRP,0.918
14,RRIRMRPPRLPRPRPRPAENPRP,0.084
15,RRIRMRPPRLPRPRPRPAFKPRP,-0.323
16,RRIRMRPPRLPRPRPRPAHCPRP,0.352
17,RRIRMRPPRLPRPRPRPALPPRP,0.363
18,RRIRMRPPRLPRPRPRPANAPRP,0.442
19,RRIRMRPPRLPRPRPRPAPDPRP,1.15
20,RRIRMRPPRLPRPRPRPARGPRP,1.1
21,RRIRMRPPRLPRPRPRPARSPRP,1.05
22,RRIRMRPPRLPRPRPRPAVAPRP,1.04
23,RRIRMRPPRLPRPRPRPAVCPRP,0.103
24,RRIRMRPPRLPRPRPRPAVQPRP,0.0778
25,RRIRMRPPRLPRPRPRPAWVPRP,0.375
